Data reported in the DeepSol protein solubility set.

Assay: soluble on expression in E. coli; label from the status in PepcDB or PDB records

Sequence	soluble on expression in E. coli
MGQSWGYEGIAKRSLCTHKWLYNLNLHSINLFLPIESKMSAQASRQKKSDQEQRAADQALLNAAIEDNAMEQDENFTVIDKLESSGISSGDISKLKEAGYYTYESLAFTTRRELRNVKGISDQKAEKIMKEAMKFVQMGFTTGAEVHVKRSQLVQIRTGSASLDRLLGGGIETGSITEVYGEYRTGKTQLCHSLAVLCQLPIDMGGGEGKCMYIDTNATFRPERIIAIAQRYNMDSAHVLENIAVARAYNSEHLMALIIRAGAMMSESRYAVVIVDCATAHFRNEYTGRGDLAERQMKLSAFLKCLAKLADEYGVAVIITNQVVAQVDGGASMFQADAKKPIGGHIIAHMSTTRLYLRKGKGENRVAKMVQSPNLPEAEATYSITNHGIEDARED	soluble
MGSDKIHHHHHHMPRPYTLFTGQWADLPFEEVARLASGWGYDGLEIAVSGDHLDAWRWDEPGYVQSKLAVLEKYNLKVWAISNHLKGQAVCDDPIDFRHEAIVGSKVWGDGDPEGVRTRAAEEMKHTARLAKALGVDTVVGFTGSSIWQYVAMFPPVPEKVIQAGYQDFADRWNPILDVFDECGVRFAHEVHPSEIAYDYWTTVRTLEAIGHREAFGLNWDPSHFMWQGIDPVSFIWDFKDRIYHVDCKDTKLRPTGRNTVLGSHLPWGDPRRGWDFVSAGRGDVPWESSFRALTAIGYDGPISVEWEDAGMDRLHGAPEALAALKKFDFPASQTSFDAAFSSKD	not soluble
MIVLGIESSCDETGVGIIDLADDGTMTIVGDAVASSMEQHARFGGVVPEIASRAHLESMIPVMKEALAQAGVERPDAVAATVGPGLAGALLVGASAAKAYAAAWGVPFYGVNHLGGHVAVANLEGEELPHSIALLVSGGHTQILEVQAVGKPMRELGSTLDDAAGEAYDKVARLLGLGYPGGPVVDKLAARGNRKAIRFPRGLSRADDLRGEHRYDFSFSGVKTSVARYVESAEREGRVISVEDVCASFQEAVVDVLTSKAIMACKDTGASVLLLGGGVAANSRLRELAAARCQSASIELRVPSFKLCTDNGVMIAAVASQLIHEGAQPSGLSVGTDTSLEVEIPLVHSL	not soluble
MTSGQFKPVPQILMELPPAEQQRLFNEAAAIIRHLEWTDAVQLTALVMGSEALQQQLLAMLVNYVTKELRAEIQYDD	soluble
GMKTQITTRDLVLEFIHALNTENFPAAKKRLNENFTFNGPMGHREGSERYMNDMEKMKFKYVVHKMFEEGNDVCLIYDINMNGKTIAASGLYHLEKGEITSLHVYFDPRPLFEE	soluble
MGSDKIHHHHHHMNKNEIANLKMQGFILQNDGKHFALRIKTDAGCMDSEKIDKLSEISKKYGRNYISFTVRLCVEIPWINYEDIPKIKEELKNLSLISGGTGNTVRPLVACKGTVCTHGLIDSQKICNELDSLFFGKKLPHKFKIGISGCPNNCAKAQLNDIGIIGQRIPKINEENCNGCTLCLKSCSVDAITIVDKKAVIDYEKCVNCGKCGKSCKRKCISLKDGVLISVGGKFGKKYKIGENIGIYDAPNLEKIVSEIMDYFKENADSHERFGDTIDRTGISSLKEKLKDY	not soluble
MSDEREVAEAATGEDASSPPPKTEAASDPQHPAASEGAAAAAASPPLLRCLVLTGFGGYDKVKLQSRPAAPPAPGPGQLTLRLRACGLNFADLMARQGLYDRLPPLPVTPGMEGAGVVIAVGEGVSDRKAGDRVMVLNRSGMWQEEVTVPSVQTFLIPEAMTFEEAAALLVNYITAYMVLFDFGNLQPGHSVLVHMAAGGVGMAAVQLCRTVENVTVFGTASASKHEALKENGVTHPIDYHTTDYVDEIKKISPKGVDIVMDPLGGSDTAKGYNLLKPMGKVVTYGMANLLTGPKRNLMALARTWWNQFSVTALQLLQANRAVCGFHLGYLDGEVELVSGVVARLLALYNQGHIKPHIDSVWPFEKVADAMKQMQEKKNVGKVLLVPGPEKEN	soluble
MGSDKIHHHHHHMSEKKKVLMLHGFVQSDKIFSAKTGGLRKNLKKLGYDLYYPCAPHSIDKKALFQSESEKGRDAAKEFNTSATSDEVYGWFFRNPESFNSFQIDQKVFNYLRNYVLENGPFDGVIGFSQGAGLGGYLVTDFNRILNLTDEQQPALKFFISFSGFKLEDQSYQKEYHRIIQVPSLHVRGELDEVVAESRIMALYESWPDNKRTLLVHPGAHFVPNSKPFVSQVCNWIQGITSKEGQEHNAQPEVDRKQFDKPQLEDDLLDMIDSLGKL	not soluble
MSKLAIIAGDGIGPEVTAEAVKVLDAVVPGVQKTSYDLGARRFHATGEVLPDSVVAELRNHDAILLGAIGDPSVPSGVLERGLLLRLRFELDHHINLRPARLYPGVASPLSGNPGIDFVVVREGTEGPYTGNGGAIRVGTPNEVATEVSVNTAFGVRRVVADAFERARRRRKHLTLVHKTNVLTFAGGLWLRTVDEVGECYPDVEVAYQHVDAATIHMITDPGRFDVIVTDNLFGDIITDLAAAVCGGIGLAASGNIDATRANPSMFEPVHGSAPDIAGQGIADPTAAIMSVALLLSHLGEHDAAARVDRAVEAHLATRGSERLATSDVGERIAAAL	soluble
MGSDKIHHHHHHMIMIRQLTPADFDAVITLGEIVHGSGYMDIAELTAIYHKGIKNGINANFVALENEQLIGFRLTYAAGQWPQDQWCTVDKWGVKFEDVCYFKSNTIAESGRGQGLGGKLLAASKAAVIAQGAKAGVSHLWQQSPNNAAVRYFTKAGGKLIKQHPQRWHQRYMGDDYICVLCGEDCHCVACEMLLLF	not soluble
MGSDKIHHHHHHMAKQLPDIGDYKYGFKDKDVSIFRAGRGLTKEIVEEISRMKEEPQWMLDFRLKSLDKFYEMPMPQWGGDLNDLDFDEITYYVKPSEKSEKSWDEVPDEIKATFDKLGIPEAEQKYLAGVSAQYESEVVYHNMKEDLEALGIVFKDTDSALKENEDIFREHFGKVIPPTDNKFAALNSAVWSGGSFIYVPKGVKVDTPLQAYFRINSENMGQFERTLIIVDEGAHVHYVEGCTAPVYTTNSLHSAVVEIIIKKDAYCRYTTIQNWANNVYNLVTKRAVCEENATMEWIDGNIGSKLTMKYPAVILKGEGARGLTLSIAIAGKGQHQDAGAKMIHLAPNTSSTIVSKSIAKHGGKVTYRGIVHFGPKAKNSRSNIECDTLIMDNQSTSDTIPYNEIKNDYVSLEHEAKVSKVSEEQLFYLMSRGISEQEATEMIVMGFIEPFTRELPMEYAVEMNRLIKFEMEGSIG	not soluble
MKKVLFLLFLVFSFGVYSATFSDSDKKEILKQFSEFQKAVKKKDAAAVSRYISYPLKEGNTKEVIWKNSSELAKDLKDKETYTFYSINELKIDSNANKIINVEERLLEKNGEFGDEFLSVTGRFLDTDDVEGTIYTGIDKPHFVVAVSVYDDMFEGGTYYLFSFENKKLELVSIFRLP	not soluble
MAHHHHHHMAMKDAVWLGKPVDVTGEDLCSVYTSRIGGTATLFRETADYSVFRCPKCNSMNTVSLLAQIYAPLDVYDRLLYVLTCSTCSTEQSTFCFALRSQNFNPSYKNVSQTNDKGGCEDKRLLFEESADWGDGMDKGWDYDYKSVKSNTATEQRGNRSTVNEAIADDICSTEVPSSLAPPGSQPPIRGMRFPCFTLEVFEEPPKVKPKSAPFNIQLHEAQGKYGEDVVETTVLDEADEPLHEKLLRKYVERIGRVPSQCVRWGPSREPLQLSVISIVAPRCPYCGKKRRYELQLTSPIIYFLTKSNEKKHPLHFGNVLVFTCSGNCNTEAYALEYCFVEGEI	not soluble
MRFTISAAKPEDCKDIERMIMELAVYENMPDQVKISHKELERDGFGPNPFYHCLVAEVPEEHKSKDGNTTVGYVIFFYTYSTWKGRTVYMEDLYVMPEFRGNGIGKALLGAVAKEAKDQLCSRLQFSVLDWNKPSLDFYMAKGAEDLTAKEGWHFLRFHGMALDNLAQEAP	not soluble
MSLERSLSVTILFQDVPVSVWEINKNTPQPDWVKNCFENNTMVWYDNRLKILVKAINPSPKRDVKLGLRDTMLGYYGGGFVMGNIGDYFDATNGRVLSKKKFYKQYVINEEGHHHHHH	not soluble
MATIGLDRLYYAKITENENGEETYATPVPLAKAITAELSVELAEATLYADDGAAEVVKEFQSGTLTLGVADIGVDAAEVLTGATLDDNKVLISTSEDGGAPVAIGFRAKKANGKYRYFWLYRVKFGIPATNLQTKGDSITFSTPTIEGTVMRRNKPDGLEHHHHHH	soluble
MKPLAQLLLFLLQFQKGNLVSQSSSTPLMVNGVLGESVTLPLEFPAGERIQFITWLCNGTSFAFLEPYEGKSPKIYVTHPKWQKRLSFTQSYSPQLSNLEMENIGFYSAQIATETSAKLSSYTLRIFKQLPRPQVRVDSIISENGICNAILRCSVEEGGETITYEWTSMGPGAAVSHVGSVLYGSWSLHDLDWIYTCTALNPVSYSNSTLTLAAQLCASSKAAEGTYCPVKWIFLGNRLLLLVFLGVLRTWHIQAQVLSKPLRPNSG	not soluble
MEERLSTTSSYPSHPGRSVEEDHNTLLASSSISSIIRGTRGHLNNFIESVGNWLVPSSSGRDDDAVSLDSCQSVYSPVRHHINSGTGGGILMEPSSIHVPENYYSVTIGEAQMVVLKRYQNLRLIGSGAQGIVCSAFDTVRNEQVAIKKLSRPFQNVTHAKRAYRELKLMSLVNHKNIIGILNCFTPQKKLDEFNDLYIVMELMDANLCQVIQMDLDHERLSYLLYQMLCGIRHLHSAGIIHRDLKPSNIVVRSDCTLKILDFGLARTAIEAFMMTPYVVTRYYRAPEVILGMGYKENVDVWSIGCIFGELIRGRVLFPGGDHIDQWTRIIEQLGTPDRSFLERLQPTVRNYVENRPRYQATPFEVLFSDNMFPMTADSSRLTGAQARDLLSRMLVIDPERRISVDDALRHPYVNVWFDEIEVYAPPPLPYDHNMDVEQNVDSWREHIFRELTDYARTHDIYS	not soluble
MSFSADEVRFLAQSEREIAEMTADLDLSKKSMISDVATLRKHFGDFGRAVAELAGARRSAVGKLPQDWLMCQESAQQTTPPAVSAERARRLKTALGENVIVHDVTCSIGTEGHELIDAGLRYLGSDLDFSRTLMAAHNLQGKNALIFRADALQPASRGADVIIADPARRAGGKRITNPAQLLPPLPSLLDAWINQPLAVKCAPGLDFSEWPGLVSIASVDGGVKEACLYTTDLADGETREAIVIKDGLIDRITNFEDDATGQDLAAAPGEFIIDPDGAIVRAGLVRHYAVREQLWMLDERIAYLTGNRIPEGTSGFRFIEEVPLKKLKSAMAAHDAGAVEILVRGVDVDPDQLRKRLQLKGTKAMSVVITRIGSRGVALICGPRERA	not soluble
MIATTSQQSFNLLRTLAVQKASDFADEFYIYMLKDQEASLFLSSQQVHDRLHGSMSKWIADILTNTGDSLADLINHQKKIGQIHARIGIPVDLVERGARRLKWHLYEHIAQVADDKALCFDAMRFASISMDIAIEIMSKTYSQSHDLEHHHHHH	not soluble
MSVAGLKKQFHKATQKVSEKVGGAEGTKLDDDFKEMERKVDVTSRAVMEIMTKTIEYLQPNPASRAKLSMINTMSKIRGQEKGPGYPQAEALLAEAMLKFGRELGDDCNFGPALGEVGEAMRELSEVKDSLDIEVKQNFIDPLQNLHDKDLREIQHHLKKLEGRRLDFDYKKKRQGKIPDEELRQALEKFDESKEIAESSMFNLLEMDIEQVSQLSALVQAQLEYHKQAVQILQQVTVRLEERIRQASSQPRREYQPKPRMSLEFPTGDSTQPNGGLSHTGTPKPSGVQMDQPCCRALYDFEPENEGELGFKEGDIITLTNQIDENWYEGMLHGHSGFFPINYVEILVALPH	soluble
GWIQELTAGHAEHTPETEEYGISSFVYKRRLPFHSTRFYRWLDQMPKNVVRAKGIVWCASHNNLALLMSQAGPSVTIEPVSYWVAALPKLEQEQVKQQEPEILEEWDPEFGDRLTQLVFIGTDLDEETITKELDQCLLTEYEFDSDWSLFEDPFKWKLNQ	not soluble
MRGSHHHHHHGSAPIKVGDAIPAVEVFEGEPGNKVNLAELFKGKKGVLFGVPGAFTPGCSKTHLPGFVEQAEALKAKGVQVVASLSVNDAFVTGEWGRAHKAEGKVRLLADPTGAFGKETDLLLDDSLVSIFGNRRLKRFSMVVQDGIVKALNVEPDGTGLTCSLAPNIISQL	soluble
